Data from publication PMC2976847 (Frontiers in bioscience : a journal and virtual library, 2008).
Values joined by “and” are separate entries in the source; they are usually repeats but may differ in a detail not shown here. Identical values can stand only once.

Biological target: the molecule itself
Assay: native gel or EMSA

B1: Stat5a (wild type), from Epo-stimulated 293T cells (natural protein)
chain: MAGWIQAQQLQGDALRQMQVLYGQHFPIEVRHYLAQWIESQPWDAIDLDNPQDRGQATQLLEGLVQELQKKAEHQVGEDGFLLKIKLGHYATQLQNTYDRCPMELVRCIRHILYNEQRLVREANNCSSPAGVLVDAMSQKHLQINQRFEELRLITQDTENELKKLQQTQEYFIIQYQESLRIQAQFAQLGQLNPQERMSRETALQQKQVSLETWLQREAQTLQQYRVELAEKHQKTLQLLRKQQTIILDDELIQWKRRQQLAGNGGPPEGSLDVLQSWCEKLAEIIWQNRQQIRRAEHLCQQLPIPGPVEEMLAEVNATITDIISALVTSTFIIEKQPPQVLKTQTKFAATVRLLVGGKLNVHMNPPQVKATIISEQQAKSLLKNENTRNECSGEILNNCCVMEYHQATGTLSAHFRNMSLKRIKRADRRGAESVTEEKFTVLFESQFSVGSNELVFQVKTLSLPVVVIVHGSQDHNATATVLWDNAFAEPGRVPFAVPDKVLWPQLCEALNMKFKAEVQSNRGLTKENLVFLAQKLFNISSNHLEDYNSMSVSWSQFNRENLPGWNYTFWQWFDGVMEVLKKHHKPHWNDGAILGFVNKQQAHDLLINKPDGTFLLRFSDSEIGGITIAWKFDSPDRNLWNLKPFTTRDFSIRSLADRLGDLNYLIYVFPDRPKDEVFAKYYTPVLAKAVDGYVKPQIKQVVPEFVNASTDAGASATYMDQAPSPVVCPQPHYNMYPPNPDPVLDQDGEFDLDESMDVARHVEELLRRPMDSLDARLSPPAGLFTSARSSLS
stoichiometry N: 4 and 2
